T1: FcγRIIb extracellular domain with C-terminal His tag (human, UniProt P31994 43-217)
T1 construct: extracellular domain; Expressed in FreeStyle293 cells; analyte in the SPR assay; also called FcgRIIb; 2b
T1 sequence (looked up): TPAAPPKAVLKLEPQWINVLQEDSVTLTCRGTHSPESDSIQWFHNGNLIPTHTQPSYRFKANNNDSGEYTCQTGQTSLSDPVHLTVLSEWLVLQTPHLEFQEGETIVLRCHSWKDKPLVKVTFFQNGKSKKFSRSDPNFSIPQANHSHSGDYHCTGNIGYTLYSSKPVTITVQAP

T2: FcγRIIb (human, UniProt P31994 43-217)
T2 construct: extracellular domain; also called FcgRIIb; 2b
T2 sequence (looked up): T1 sequence (looked up)

B1: GpH7-A5/GpH7-B3 variant E269_19Q/GpL16-k0 (He Ab) (antibody, human IgG1, kappa)
heavy 1: not shown
heavy 2: not shown
light: DIVMTQSPLSLPVTPGEPASISCQASESLVHSNRNTYLHWYLQKPGQSPQLLIYKVSNRFSGVPDRFSGSGSGTDFTLKISRVEAEDVGVYYCSQNTHVPPTFGQGTKVEIERTVAAPSVFIFPPSDEQLKSGTASVVCLLNNFYPREAKVQWKVDNALQSGNSQESVTEQDSKDSTYSLSSTLTLSKADYEKHKVYACEVTHQGLSSPVTKSFNRGEC
notes: He Ab: mutation in one H chain only
B2: GpH7-A5/GpH7-B3 variant L234_04F/GpL16-k0 (He Ab) (antibody, human IgG1, kappa)
heavy 1: not shown
heavy 2: not shown
light: B1 light
notes: as for B1
B3: GpH7-A5/GpH7-B3 variant P271_06M/GpL16-k0 (He Ab) (antibody, human IgG1, kappa)
heavy 1: not shown
heavy 2: not shown
light: B1 light
notes: as for B1
B4: GpH7-A5/GpH7-B3 variant P271_20W/GpL16-k0 (He Ab) (antibody, human IgG1, kappa)
heavy 1: not shown
heavy 2: not shown
light: B1 light
notes: as for B1
B5: GpH7-A5/GpH7-B3 variant P271_04F/GpL16-k0 (He Ab) (antibody, human IgG1, kappa)
heavy 1: not shown
heavy 2: not shown
light: B1 light
notes: as for B1
B6: GpH7-A5/GpH7-B3 variant P271_02A/GpL16-k0 (He Ab) (antibody, human IgG1, kappa)
heavy 1: not shown
heavy 2: not shown
light: B1 light
notes: as for B1
B7: GpH7-A5/GpH7-B3 variant P271_13S/GpL16-k0 (He Ab) (antibody, human IgG1, kappa)
heavy 1: not shown
heavy 2: not shown
light: B1 light
notes: as for B1
B8: GpH7-A5/GpH7-B3 variant G236_20W/GpL16-k0 (He Ab) (antibody, human IgG1, kappa)
heavy 1: not shown
heavy 2: not shown
light: B1 light
notes: as for B1
B9: GpH7-A5/GpH7-B3 variant P271_14T/GpL16-k0 (He Ab) (antibody, human IgG1, kappa)
heavy 1: not shown
heavy 2: not shown
light: B1 light
notes: as for B1
B10: GpH7-A5/GpH7-B3 variant E269_04F/GpL16-k0 (He Ab) (antibody, human IgG1, kappa)
heavy 1: not shown
heavy 2: not shown
light: B1 light
notes: as for B1
B11: GpH7-A5/GpH7-B3 variant H268_12R/GpL16-k0 (He Ab) (antibody, human IgG1, kappa)
heavy 1: not shown
heavy 2: not shown
light: B1 light
notes: as for B1
B12: GpH7-A5/GpH7-B3 variant G236_02A/GpL16-k0 (He Ab) (antibody, human IgG1, kappa)
heavy 1: not shown
heavy 2: not shown
light: B1 light
notes: as for B1
B13: GpH7-A5/GpH7-B3 variant P271_15Y/GpL16-k0 (He Ab) (antibody, human IgG1, kappa)
heavy 1: not shown
heavy 2: not shown
light: B1 light
notes: as for B1
B14: GpH7-A5/GpH7-B3 variant E269_03V/GpL16-k0 (He Ab) (antibody, human IgG1, kappa)
heavy 1: not shown
heavy 2: not shown
light: B1 light
notes: as for B1
B15: GpH7-A5/GpH7-B3 variant H268_04F/GpL16-k0 (He Ab) (antibody, human IgG1, kappa)
heavy 1: not shown
heavy 2: not shown
light: B1 light
notes: as for B1
B16: GpH7-A5/GpH7-B3 variant P271_12R/GpL16-k0 (He Ab) (antibody, human IgG1, kappa)
heavy 1: not shown
heavy 2: not shown
light: B1 light
notes: as for B1
B17: GpH7-A5/GpH7-B3 variant E269_02A/GpL16-k0 (He Ab) (antibody, human IgG1, kappa)
heavy 1: not shown
heavy 2: not shown
light: B1 light
notes: as for B1
B18: GpH7-A5/GpH7-B3 variant D265_10E/GpL16-k0 (He Ab) (antibody, human IgG1, kappa)
heavy 1: not shown
heavy 2: not shown
light: B1 light
notes: as for B1
B19: GpH7-A5/GpH7-B3 variant D265_02A/GpL16-k0 (antibody, human IgG1, kappa)
heavy 1: not shown
heavy 2: not shown
light: B1 light
notes: mutation in the GpH7-B3 chain only; also called He Ab
B20: GpH7-A5/GpH7-B3 variant D265_19Q/GpL16-k0 (antibody, human IgG1, kappa)
heavy 1: not shown
heavy 2: not shown
light: B1 light
notes: as for B19
B21: GpH7-A5/GpH7-B3 variant V266_20W/GpL16-k0 (antibody, human IgG1, kappa)
heavy 1: not shown
heavy 2: not shown
light: B1 light
notes: as for B19
B22: GpH7-A5/GpH7-B3 variant V266_19Q/GpL16-k0 (antibody, human IgG1, kappa)
heavy 1: not shown
heavy 2: not shown
light: B1 light
notes: also called He Ab V266_19Q
B23: GpH7-A5/GpH7-B3 variant Y300_12R/GpL16-k0 (antibody, human IgG1, kappa)
heavy 1: not shown
heavy 2: not shown
light: B1 light
notes: also called He Ab Y300_12R
B24: GpH7-A5/GpH7-B3 variant T335_15Y/GpL16-k0 (antibody, human IgG1, kappa)
heavy 1: not shown
heavy 2: not shown
light: B1 light
notes: also called He Ab T335_15Y

Target: T1, FcγRIIb extracellular domain with …
Experiment: SPR (Biacore), relative binding, HeCon Ab = 100

| He/Con_2b | Binder |
| --- | --- |
| 44.3 % of HeCon Ab (=100) | B1 |
| 99.8 % of HeCon Ab (=100) | B2 |
| 77.5 % of HeCon Ab (=100) | B3 |
| 58.1 % of HeCon Ab (=100) | B4 |
| 59.5 % of HeCon Ab (=100) | B5 |
| 88 % of HeCon Ab (=100) | B6 |
| 87.6 % of HeCon Ab (=100) | B7 |
| 58.2 % of HeCon Ab (=100) | B8 |
| 95.4 % of HeCon Ab (=100) | B9 |
| 45 % of HeCon Ab (=100) | B10 |
| 89.8 % of HeCon Ab (=100) | B11 |
| 96.5 % of HeCon Ab (=100) | B12 |
| 52.3 % of HeCon Ab (=100) | B13 |
| 45.1 % of HeCon Ab (=100) | B14 |
| 89.6 % of HeCon Ab (=100) | B15 |
| 86.5 % of HeCon Ab (=100) | B16 |
| 49.9 % of HeCon Ab (=100) | B17 |
| 38.2 % of HeCon Ab (=100) | B18 |

Target: T3, FcγRIa extracellular domain with C-terminal His tag (human, UniProt P12314 16-292)
T3 construct: extracellular domain; Expressed in FreeStyle293 cells; analyte in the SPR assay; also called FcgRI; 1a
T3 sequence (P12314 16-292): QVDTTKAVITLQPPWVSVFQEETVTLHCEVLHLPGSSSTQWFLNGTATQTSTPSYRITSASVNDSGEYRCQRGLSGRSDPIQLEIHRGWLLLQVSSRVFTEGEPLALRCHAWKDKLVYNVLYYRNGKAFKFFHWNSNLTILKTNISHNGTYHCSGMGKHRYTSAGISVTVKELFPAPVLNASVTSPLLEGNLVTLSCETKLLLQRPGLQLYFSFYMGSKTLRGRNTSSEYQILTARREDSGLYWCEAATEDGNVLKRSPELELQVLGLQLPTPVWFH
Experiment: SPR (Biacore), relative binding, HeCon Ab = 100

| He/Con_1a | Binder |
| --- | --- |
| 105 % of HeCon Ab (=100) | B1 |
| 101 % of HeCon Ab (=100) | B2 |
| 102 % of HeCon Ab (=100) | B3 |
| 103 % of HeCon Ab (=100) | B4 |
| 102 % of HeCon Ab (=100) | B5 |
| 104 % of HeCon Ab (=100) | B6 |
| 102 % of HeCon Ab (=100) | B7 |
| 105 % of HeCon Ab (=100) | B8 |
| 102 % of HeCon Ab (=100) | B9 |
| 103 % of HeCon Ab (=100) | B10 |
| 106 % of HeCon Ab (=100) | B11 |
| 100 % of HeCon Ab (=100) | B12 |
| 103 % of HeCon Ab (=100) | B13 |
| 103 % of HeCon Ab (=100) | B14 |
| 106 % of HeCon Ab (=100) | B15 |
| 102 % of HeCon Ab (=100) | B16 |
| 104 % of HeCon Ab (=100) | B17 |
| 101 % of HeCon Ab (=100) | B18 |

Target: T2, FcγRIIb
Experiment: SPR (Biacore), relative binding

| He/Con_2b | Binder |
| --- | --- |
| 19.9 % of GpH7-A5/GpH7-B3/GpL16-k0 | B19 |
| 33.4 % of GpH7-A5/GpH7-B3/GpL16-k0 | B20 |
| 71.9 % of GpH7-A5/GpH7-B3/GpL16-k0 | B21 |

Target: T4, FcγRIa (human, UniProt P12314 16-292)
T4 construct: extracellular domain; Soluble extracellular domain expressed in FreeStyle293 cells, used as analyte in Biacore; also called FcgRI; 1a; not shown: His tag attached to the C terminus
T4 sequence (P12314 16-292): as above
Experiment: SPR (Biacore); He Ab vs HeCon Ab GpH7-A5/GpH7-B3/GpL16-k0
Outline: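 Antibodies were captured on antigen-peptide chips (amine-coupled to CM5, or biotinylated peptide on SA), then FcγR diluted in HBS-EP+ running buffer was injected as analyte at 25° C. Chips were regenerated with 10 mM glycine-HCl, pH 1.5 between cycles.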

| He/Con_1a | Binder |
| --- | --- |
| 100 relative binding, control = 100 | B22 |
| 105 relative binding, control = 100 | B23 |
| 107 relative binding, control = 100 | B24 |
